Experimental findings from patent US20230272390A1, “COMPOSITIONS AND METHODS FOR HEMOGLOBIN PRODUCTION” (THE CHILDREN'S HOSPITAL OF PHILADELPHIA, priority 2020, published 2023) are described below.

For experiment [1], the system named is motifs from the CHD4 promoter and enhancer sites. Description: EMSA with COS-7 nuclear extracts and radiolabeled probes. The class given is binding, human. The following applies: COS nuclear extracts, FLAG-tagged constructs, radiolabeled CHD4 motif probes. As to the method: Nuclear extracts were prepared from COS-7 cells transiently transfected with ZNF410 full-length and ZNF410 ZF1-5 plasmids. FuGENE® 6 (Promega) was used to transfect 5 μg of vector into 100 mm plates of COS-7 cells. A pcDNA3 empty vector was used as control. Cells were harvested 48 hours after transfection and nuclear extracts prepared (Andrews, et al. (1991) Nucleic Acids Res., 19:2499).
EMSAs were performed (Crossley, et al. (1996) Mol. Cell Biol., 16:1695-1705). The sense oligonucleotide was labelled with [γ-^32P]-adenosine triphosphate (Perkin Elmer) and boiled at 100° C. for 1 minute before addition of the antisense oligonucleotide and annealing of probe via slow cooling from 100° C. to room temperature. Probes were purified using Quick Spin Columns for radio-labelled DNA Purification (Roche). Nuclear extracts were harvested from COS-7 cells and samples and loaded on a 6% native polyacrylamide gel in TBE buffer (45 mM Tris, 45 mM boric acid, 1 mM EDTA). A ‘COS empty’ control lane was included to show binding of any background endogenous protein to the probe. […] Gels were run at 250 V for 1 hour, 45 minutes at 4° C. then dried under vacuum. […]
ZNF410 contains five tandem C2H2-type zinc fingers (ZFs) potentially involved in DNA binding (FIG. 5A). […] Direct DNA binding by full length (FL) ZNF410 to sequences found at the CHD4 gene was assessed by electrophoretic mobility shift assays (EMSAs). […]

Experiment [2] has as its target T1, endogenous ZNF410 (Homo sapiens, UniProt Q86VK4).
T1 construct: endogenous in cells; host or cells: HUDEP-2 (HUDEP-2-Cas9) cells, differentiated
T1 sequence (Q86VK4 1-478): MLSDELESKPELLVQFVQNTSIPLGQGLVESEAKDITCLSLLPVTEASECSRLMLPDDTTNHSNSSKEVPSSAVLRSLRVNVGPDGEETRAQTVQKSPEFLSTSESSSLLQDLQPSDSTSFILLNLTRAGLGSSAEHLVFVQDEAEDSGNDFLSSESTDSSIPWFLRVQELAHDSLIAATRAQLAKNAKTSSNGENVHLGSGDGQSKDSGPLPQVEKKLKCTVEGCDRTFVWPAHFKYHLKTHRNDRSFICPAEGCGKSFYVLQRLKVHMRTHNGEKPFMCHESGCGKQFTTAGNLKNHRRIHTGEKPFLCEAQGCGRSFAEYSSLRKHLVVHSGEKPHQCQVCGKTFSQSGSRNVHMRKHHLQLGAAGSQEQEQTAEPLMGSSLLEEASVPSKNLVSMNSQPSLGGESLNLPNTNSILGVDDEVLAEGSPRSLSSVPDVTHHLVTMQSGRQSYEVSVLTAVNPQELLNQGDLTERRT
Briefly: RT-qPCR in HUDEP-2 cells overexpressing HA-tagged ZNF410 constructs. The class given is cell-based. On the procedure: HUDEP-2 cells were cultured and differentiated as described (Kurita, et al. (2013) PLoS One 8:e59890). Briefly, StemSpan™ Serum-Free Expansion Medium (SFEM) supplemented with 50 ng/ml human stem cell factor (SCF), 10 μM dexamethasone, 1 μg/ml doxycycline, 3 IU/ml erythropoietin and 1% penicillin/streptomycin was utilized for routine cell maintenance. Cell density was kept at 0.1-1×10^6/ml. HUDEP-2 cells were differentiated for 6-7 days in IMDM supplemented with 50 ng/ml human SCF, 3 IU/ml erythropoietin, 2.5% fetal bovine serum, 250 μg/ml holo-transferrin, 10 ng/ml heparin, 10 μg/ml insulin, 1 μg/ml doxycycline and 1% penicillin/streptomycin.
SgRNAs were cloned into a lentiviral U6-sgRNA-EFS-GFP/mCherry expression vector (LRG, Addgene: #65656) by BsmBI digestion. The ZNF410 cDNA (clone ID: OHu10535), CHD4 cDNA (clone ID: OHu28780) were purchased from GenScript and were sub-cloned into a lentiviral vector pSDM101-IRES-GFP. ZNF410 variants were sub-cloned into pSDM101-IRES-GFP vector. The N-terminal HA tag was introduced by PCR. For EMSA, the ZNF410 full length or different ZF versions were sub-cloned into mammalian expression vector pcDNA3.
Lentivirus was produced as described (Grevet, et al. (2018) Science 361:285-290). Briefly, 10-20 μg of expression vectors, 5-10 μg of pVSVG (pMD2.G) and 7.5-15 μg of psPAX2 package plasmids, and 80 μl of 1 mg/ml polyethylenimine (PEI) were mixed, incubated for 15-20 minutes, and added to HEK293T cells grown in 10 cm plates to above 90% confluence. Media were replaced 6-8 hours post transfection, virus was collected 24 hours and 48 hours post-transfection and pooled. For infection, virus-containing supernatant was mixed with the indicated cell lines with 8 μg/ml polybrene and 10 mM HEPES, and then spun at 2250 rpm for 1.5 hours at room temperature. Infected HUDEP-2 cells were selected for mCherry+ or GFP+ cell sorting at 48 hours post-infection.
Total RNA was purified using the RNeasy® Plus Mini Kit (Qiagen), including an on-column DNAse treatment using RNase-free DNase set (Qiagen) to remove genomic DNA. Reverse transcription was accomplished using iScript™ Supermix (Bio-Rad). qPCR reactions were prepared with Power SYBR® Green (ThermoFisher Scientific). Quantification was performed using the ΔΔCT method.
Overexpression of ZF1-5 but not ZF2-4 should compete with endogenous ZNF410 for chromatin binding, thus acting in a dominant-negative manner. To test this hypothesis, a construct containing HA-tagged ZF1-5 or ZF2-4 driven by the EF1α promoter was introduced via lentiviral infection into HUDEP-2 cells. As control, the expression of full-length HA-tagged ZNF410 was forced. […] Moreover, full-length HA-ZNF410 when overexpressed to similar levels to HA-ZF1-5 also produced similar binding patterns (FIG. 4A). […] Thus, the ZF region is sufficient for chromatin occupancy but insufficient for CHD4 gene activation. […] Finally, the impact of ZNF410 expression on γ-globin levels was also measured.

The mark [3] stands for this setting: overexpression in HUDEP-2 cells.

B1: ZF1-5: fragment of human ZNF410 comprising five zinc finger domains ZF1-5 (residues 217-366); dominant-negative when overexpressed (protein)
chain: KKLKCTVEGCDRTFVWPAHFKYHLKTHRNDRSFICPAEGCGKSFYVLQRLKVHMRTHNGEKPFMCHESGCGKQFTTAGNLKNHRRIHTGEKPFLCEAQGCGRSFAEYSSLRKHLVVHSGEKPHQCQVCGKTFSQSGSRNVHMRKHHLQLG
modifications: left off: small tags and cut ends
notes: fragment of human ZNF410 comprising five zinc finger domains ZF1-5 (residues 217-366); dominant-negative when overexpressed
B1: in experiment [1], the “DNA binding in EMSA” value is listed as “strong DNA binding”. For the same molecule, in experiment [2] (setting [3]), the “effect on expression of the other 6 ZNF410 bound genes” value was “did not impact” and the “reduction of CHD4 mRNA levels compared to control” value is given as “approximately 70%”. For the same molecule, the “effect on γ-globin mRNA levels” value in experiment [2] (overexpression in differentiated HUDEP-2 cells) is “significant increase”.
